Assay results: the DeepSol protein solubility set

assay: soluble on expression in E. coli; label from the status in PepcDB or PDB records

Row | Sequence | soluble on expression in E. coli
1 | MGSDKIHHHHHHLSFIIRKALLTDVAAIVQLERAHVDDELLGSNSQLHAHSFTKSEVSQLINQHWFIVAEEQGVIIGYVMAAKWSFFSAQPLYRHIIQKLKFADLQGQALSTTNTCQYGPVWIQESKRGQGVFSALVTELKKQVADTFPFMVTYVAADNARSLAAHQQKAAMTEIDQFSFEQRDYCLLATTNIT | not soluble
2 | MGSDKIHHHHHHLSTSQPAEPGDEIARLGALAADFRRRLELDPGAIYPAHAECLWRLGNLQIAQGDVEAGLLSISDSVGLYRAIAQAQPDSYAVQLASLLNSQSNMLAEASHLEEARAIASDAVEHARSAMDDYGDQARFVLVSALINLAGLKMRSGDTAGTVDELAQAVEVFRDGGTAGQPFLGSMVEALHRAAMAFTEVGLWNEAIDTRRLLIGLFGQAPPSAVVQLLMLTLQQASVGLAGTGDTAKALVHANEAVDLARMLFAADGQANRLALAQAVGNLAGRHHDAGSLKEALDLSLEAVDLFQDAVSMDPIHAVPSLIVTLDCMASILTALGLPDQAATVREQRSQLQETLEIIAPRAN | not soluble
3 | MGSDKIHHHHHHMAAFTTTDGLRLFYEDEGTGQPLLCLAGLTRCSRDFEFLRPHVTDLRLIRLDYRGRGQSDYDPDYRNYNVLREAHDVIELLDHLGLDRVTVLGTSRGGMIAMALAASHPDRLAGVILNDVGPVIEPAGIARIMDYVGKKPVSKTHDQAALALKQAMEPQFPGVPLSVWRKQAEIQYAASDQGLALRYDDGLHKALLDQAATGAIPDLWLFFEALRDIPTAVLRGANSDILGAGTVAEMHRRHPGLISAEVPDRGHVPFLDEPQSLDLIRRILETA | not soluble
4 | MGSDKIHHHHHHMAAIPTYKLYGEKTEVSGEFLLHCETLFSRSSLYRFEIDLHRHENFLQILYISEGQGDATLDGKVIAITPPAAIVVPPLFSHGFRFSRSIKGMIITVLPAALPLAVRTSLKQALPLPLHMPLEGEPCAIEISLLMERIADEYAGAKPGRNGLLEAYLATVVLLLARQAAPDASQDLMTLTANDRRMEKLAALIAANFRSHKTAAFYAREMGLSPTHLNRLAKAGTGATLQQLIARKQLEIAQQELIFSQTSIQAIALNHGFTDPAYFTRFFTRETGLTPRAWRLAERQKLQNLSDRAQAEISAATASE | not soluble
5 | MGSDKIHHHHHHMAAKKKSASSRKLNLGCGRDIREGWINLDSMALPGVDVVADLSLCATTPLPFEDSSIDEFLLSHLIEHIPDPLPLMQELWRIAKPGAKMQIRVPHGAHDDAWTNPTHVKPYFARSFGYFSQPWYWRADYGYRGDWQPELVTYSVPRRRFAGQMPAQILEQIDALRNVVQEMIVDLVAVKPLRQPKKDLMQAANIKIALME | not soluble
6 | MGSDKIHHHHHHMAARNDDKYRGDTENKGFWTIDFGRSPVIGTAIHDGHFIRSDIASLMALSPEQRLREEDPFTGEMIARLTNRLVVHHSRFEIDLNRAADQAIYLKPEQSWGLEVWSEEPSQDAVRHSLDFHADYYAMLESVLSSVERRHGPFVVLDVHSYNHRRQGAGEPPTAQAEAPDINIGTFSMDRSRWNDVVSAVGEHFASATIGGRRLDVRENVAFQGKGEQTRFIHERFAENGCAIAIEFKKFFMDEWTGEPDRRVVSDIRETIAALQPVLEECLRSR | not soluble
7 | MGSDKIHHHHHHMADNFLSQDEVDALLKGVSGEVDDAPQEAVDTGGPRPYNLATQERIVRGRMPTLEIINERFARLLRIGLYNFLRRGVEISVGPVRVSKYSEFIRNLVVPTNLNLVQFKPLRGTALMIFNPDLVFLMVDNLFGGDGRFHTRVEGRDFTQTEHRIIQRILNIVFEAYGKSWEPVYPIEFEFIRSEMNTQFANIATPNEVVVAVTFAIELGQISGEMHFCMPYSMIEPIKDLLTSSLQAENLEVDKRWIRLMRQQIQLAEVEIVADLGTAEVSLRDIVNLKVGDVIPLDIPPTIEAKVDGVPVMECAYGKFNGQYTLRVEKLLSTSAVEPKTGEQHV | not soluble
8 | MGSDKIHHHHHHMAEKPISLSQAPAGYSDWLSELKTKIHSAQQRATLAVNQELVLLYWQIGQEILTRQAELGWGAKVVERLAHDLRTAFPDMKGFSPRNLKYMRAFAEAWPDLEFVQALLAQLPWYHQLALLDKLDNTDSRTWYAQKALENHWSRNVLVMHIESGLHQRQGAAITNFAATLPKPQSDLARESIKDPYRFDFLGLTEAAQEREIEHALVQHVTQFLLELGAGFAFVGRQVLMQVGDEEFFIDLLFYHLKLRCYVVIELKTGKFKPEHLGQLSFYMTAIDKQVKTEPDNATIGLLLCKSKDKVVAEYALGDKSQAMGIAEYKLQQALPEVLESNLPSIEQIERELQGEA | not soluble
9 | MGSDKIHHHHHHMAEKTFINRLQLTDFRNYGSASLRLDGRHVVLTGNNGSGKTNLMEAVSFLSPGRGLRRAVLSDVARAGAASGFSIFASLEGMAGDVELGTGSEVLDETAVRRLRINGASVRSVDELTDHLRVLWLTPAMDGLFTGSSSERRRFLDRLVLSIDPQHGRRASDFERAMRSRNKLLSEGRFDASWLAGIEQQMAALGIAMALARQEMMRLLAALIEQRREPETFPGADLMLSGFMDEHAGTAAIDLEDTYRDSLAGSRGRDAAAGRTLEGPHRSDLLVRHREKDMEAERCSTGEQKALLIGLILAHAELVATMTGFAPILLLDEIAAHLDEGRRAALFDRIDVLGGQAFMTGTDAQMFASLGDRAQFVTVDDGHLSL | not soluble
10 | MGSDKIHHHHHHMAERLGILVGGGPAPGINSVISSVTIEAINNGLEVIGIYDGFKHLVEGKTNMVKKLSIEDVSRIHIEGGSILRTSRVNPAKSEETLEKTVQTLKKLGIKYLVTIGGDDTAFSASKVCERSKGEIKVVHVPKTIDNDLPLPENMPTFGFETARHVATELVYNLMQDSRTTNRWYFVAMMGREAGHLALGVGKAASATITIIPEEFKEGVTLEEVCDVLDGAILKRKLMGRDDGVAVIGEGIAEKMDPEELANIPGVIVEKDPHGHLRLAEIPLATILKRAIERRYAERGERIHIVDVTIGYELRSARPIPFDIVYTRTLGYGAVRFLLGDYSDLPGGMVCVVGGRIKILPFDAFMDPKTGRTKVRVVDVRSEDYRVARKYMIRLEKKDLEDPETLEKLAKLAKMEPEEFKKKYWHTTELP | not soluble
11 | MGSDKIHHHHHHMAESETGDKAGQASVKTALRVIEIMEIYAREGRSLTLTELAKLLGAPMSSCLGLIRTLASLGYLYETGRRQGYYPTSRLLNIAQRISRNDPLLERVQPVLETLRDATGETVIFGKLQDDGRVLYLEVRESQNPVRYTATPGELRDVHINSIGRAILGAMTDAARDAALAKVSFQPRTGRTVASREALEREIAMWQQQGWYPNFGESFPDLGAIAVPVEIGGAVYGMSVAGPIHRVESSVDPIVAALLRGQDALRT | not soluble
12 | MGSDKIHHHHHHMAFTESDVYNNEAFFEQYMKRRYRENSPNEALEKPAFFQLISDVKGKRILDLGCGDAKFGEELLEKGCHSYTGIEGSELMYEKAKKQLENKNGAVHFLNLKDYTYPPSTFDLVTSRLALHYIEHLPIIFQNVYETLKTNGTFTFSVQHPIITSSFESLQTSGKRTSWLVDDYFKLGKRVEPWIDQEVIKYHRTTEEYFTLLQQAGFTITNLKEATPDQTYFQNAEEYERRLRIPLFLLFSCRK | not soluble
13 | MGSDKIHHHHHHMAKERVDVLLVEQGLFDTREKAKRAVMAGEILGDNEERLDKPGVKIDPSVKLHLKGKPMPYVSRGGLKLEKALKVFGLDVKGLTVLDIGSSTGGFTDVMLQNGAKLSYALDVGTNQLVWKLREDPRVVVMENTNFRYSKLEDFTEGQPEFASIDVSFISLKLILPALKNIIKTHGSVVSLIKPQFEAGRENVGKHGIVRDRKVHEEVLKNVLAMANAEGFNVKGLDFSPIKGGEGNIEFLAWLERSDTDQGVIEENVDTQKVIDSAYSNLNS | not soluble
14 | MGSDKIHHHHHHMAKPLFDQLLASAQQARAPFHTPGHKLGRAIATHLQQAWGSAIFQSDLPELPELDNLYAASGVLAESQAQAAEVFGADRSWFLVNGSTGGLLAAILTICSPGDRLLLPRNAHRSLLSGCILSGAMPVWITPPEAADFDLVGVPTPEQVATALAQDPQIKAVVLVSPTYEGVCADVAAIAAIAHNHNLPLIIDAAHGAHLGFHPDLPRSPLHEGADLVVQSTHKLLGALTQAAMLHCKGDRIDPERLSQSLALVQSSSPSYLLLASLEAATEQMRTSAQDLLQVTIDLARQAHQRLAELPGLQLPALKIGNREGFPQWDRTRLVINFQSCGWSGFCADEYLHEQWQVTAELPSLSNLVFHLSLGNRIEDIDRLVTACDRLLSQEHQEELPPRLPVWLEPETILSPRQAWFSRHQTVSAEQAIGAIAAECVCPYPPGIPVLLPGERISKSAVDYLRQVQTTGGILSGCADPELTTLRIVQDSDTIHASCLS | not soluble
15 | MGSDKIHHHHHHMAKSSLGQDSDSTAAVAVLKRAVELDAESRYQQALVCYQEGIDMLLQVLKGTKESSKRCVLRTKISGYMDRAENIKKYLDQEKEDGKYHKQIKIEENATGFSYESLFREYLHETVTEVWIEDPYIRQTHQLYNFLRFCEMLIKKPCKVRTIHLLTSGYEGLGNTQQSSGLEEIKQSLGSHGVVLEINYSSSIHDREIRFNNGWMIKIGRGLDYFKKPQGRFSLGYYDLDLRPCHETTVDIFHNKHTKKI | not soluble
16 | MGSDKIHHHHHHMAKVPAKAKPEHALLAVPRELMPRDLRVSLHDYTRGGTDRFLTNGQGAKQDMTGFEDQYVNIIDYIVRITHRIWEEKDIGYIYDTYAHNCRVWDDVGLQYGRDKIVADTTHTINAFPDVKLYADEVIWAGDAEHGFHTSHRTVIKGTNTGFSRWGPPTMRPVNVWCIANCVARENEIFEEHVQYNLGAMLQQLGFDLRALAATARAIGIETDPLFAASGRTRVPGQGKPAHGTPRGDGPFDVADFLCSMTQDVWNRRMLSRLTRAYAPALNYQGPTNRSYRSLAQYQSALLSLLAMFPDLSFEPEALYYMEDGKGTTWSSLRWSATGSHGGFGPYGTPTGREVRIWGITQHKIEGETITEEWMQFNEFDLLRQLAPDPVV | not soluble
17 | MGSDKIHHHHHHMAKYLYGRRVKLVLLTPHESVTFDYKQTETHSMGIQFNVPFSDSSTPPTCTVTIMNLSAKHRKLFKKGYEVKLYAGYAEDGVGLLSAGVIRAISPFTSDGTNNTFSFTYREGQEYSKLLSSAEKANKKADEARKKKAKVIGKKAAAGLPKIKKHSALSFGKNTAASTIIRRIASDAGITLSKVYLAKPKKYKKGYAAHGKPITNIKAIAKACGSKVYYRRGSIVIDDLSKVKGHNEHILVTEHVKGRHGGTGLIQYPTTDSDSMAKHKTWTVTSLLRYQVSTGSVVTVENRFLKGTFRVKSGEHVCDDSAFTTAMEVYV | not soluble
18 | MGSDKIHHHHHHMALALTLREYEFSVLLLEARELPEKVDDPRPLALSYGSRLILQRLDIWKNLTQPAPITTIHISNRGHFGHAVLTPDDAGVPALGYVVNYHDLYHSMGRAIRGSNAVYQTNALVTAIRTDLSLAQVAYQQGSTTRQVRARLLVLADGGKLAEQIDGVRYHTYDYQQTAIVANVKVESPRPGTAFERFTLNGPLALLPSGEGYALVWTMPAAAAEKILKLDDRSFLLHLHEQFGDRMGEFTHVGPRSSFPLILKHASTITGHRAVLIGNAAQALHPVAGQGFNLGLRDAWELASEISRIPSGTPGEPGSTRMLAAYSRRRQSDKRISRLFTDSLVKLFTADLPLVQTCSGMGLAALDNLPPARRLIAHQMIFGTKGWFIG | not soluble
19 | MGSDKIHHHHHHMALIITKKAADLPKPKKPVIGLALGSGAAKGWAHIGVLNGLAKLGIFPDKVAGCSVGALVGAAYANDNLDEIEKWVRGFSSWDVLGLMDIRWRKGGIINGEKVFEVLSSRVGALKIEQLKRAFAAVATDLYSGQEIWFREGDLRHAVRASCSMPGFLPPVQQDDRWLVDGAVVNPVPVSLCRAMGVDLVIAVDLNGHRRGQMMMLPEQVVSHQAEKSQTVTEKPQLESGFMDLWGKSKEYLSGLTEKFSLGVNSHPGMLAVMSQSMDILEQRHKRARLMGDPPDICIVPQVFDIGTMEFHRAAEAIAAGEQAVENISHLLKASIGDFDSAPQR | not soluble
